Laboratory results: paper PMC3093405, “A Motif Unique to the Human Dead-Box Protein DDX3 Is Important for Nucleic Acid Binding, ATP Hydrolysis, RNA/DNA Unwinding and HIV-1 Replication”

Biological target: DDX3wt (Homo sapiens, UniProt O00571 1-662)
Assay: EMSA; no ATP; EMSA: on ice, protein buffer 25 mM Tris-HCl pH 7.5, 0.5 mM DTT, 20% glycerol, 100 mM NaCl plus 5x binding buffer (10% glycerol, 5 mM MgCl2, 2.5 mM EDTA pH 8, 50 mM NaCl, 50 mM Tris-HCl pH 7.5, 10 mM DTT), 0.05 pmol oligo. Filter binding: 10 mM Hepes pH 7.2, 100 mM KCl, 3 mM MgCl2, 5% glycerol, 1 mM DTT, 50 µg/ml salmon sperm DNA, 50 nM dsDNA, 24°C
Settings: protein: recombinant; tags: N-terminal ~3 kDa peptide with 6xHis; C-terminal KQGCFGG; label: 5' 6-FAM

DDX3wt, sequence (O00571 whole entry): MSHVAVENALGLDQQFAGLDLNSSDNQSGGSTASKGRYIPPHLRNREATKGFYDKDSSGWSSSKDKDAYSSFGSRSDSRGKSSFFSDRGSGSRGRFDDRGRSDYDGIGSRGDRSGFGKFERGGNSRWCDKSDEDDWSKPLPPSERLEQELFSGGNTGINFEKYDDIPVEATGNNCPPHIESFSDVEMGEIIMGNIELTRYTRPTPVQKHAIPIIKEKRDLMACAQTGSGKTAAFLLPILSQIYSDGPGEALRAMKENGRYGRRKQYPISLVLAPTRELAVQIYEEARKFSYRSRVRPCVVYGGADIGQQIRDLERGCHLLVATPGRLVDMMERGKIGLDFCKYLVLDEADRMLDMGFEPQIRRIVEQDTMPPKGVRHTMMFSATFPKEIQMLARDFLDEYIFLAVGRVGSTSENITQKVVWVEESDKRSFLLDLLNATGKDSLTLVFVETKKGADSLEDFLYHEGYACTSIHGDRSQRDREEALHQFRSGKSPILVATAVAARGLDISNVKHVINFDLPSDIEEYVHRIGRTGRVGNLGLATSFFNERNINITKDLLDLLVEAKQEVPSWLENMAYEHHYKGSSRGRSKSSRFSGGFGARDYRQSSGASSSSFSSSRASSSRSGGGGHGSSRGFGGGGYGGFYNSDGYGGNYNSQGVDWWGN

B1: ssDNA (6-FAM d18mer) (ssDNA)
DNA: CTCAACTCAACCCTTCAT
B1: binds.

B2: ssRNA (6-FAM r18mer) (ssRNA)
RNA: CCCAAGAACCCAAGGAAC
B2: binds.
